According to patent US20240002531A1 (ONO PHARMACEUTICAL, published 2024):
Like-named read-outs stand apart in the source and are kept apart here.

T1: L608A peptide (HER2 603-622 with L608A) (human)
T1 peptide: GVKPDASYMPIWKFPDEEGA

T2: I613A peptide (HER2 603-622 with I613A) (human)
T2 construct: also called 1613A
T2 peptide: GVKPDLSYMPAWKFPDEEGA

T3: S609A peptide (HER2 603-622 with S609A) (human)
T3 peptide: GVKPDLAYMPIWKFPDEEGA

T4: K615A peptide (HER2 603-622 with K615A) (human)
T4 peptide: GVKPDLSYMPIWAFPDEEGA

T5: G621A peptide (HER2 603-622 with G621A) (human)
T5 peptide: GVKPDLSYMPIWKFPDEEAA

T6: HER2 peptide p603-622 (amino acids 603 to 622 of human HER2) (human)
T6 construct: Synthetic peptide; also called wild-type HER2 peptide
T6 peptide: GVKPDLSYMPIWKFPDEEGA

T7: K605A peptide (HER2 603-622 with K605A) (human)
T7 peptide: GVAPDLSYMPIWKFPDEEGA

T8: D607A peptide (HER2 603-622 with D607A) (human)
T8 peptide: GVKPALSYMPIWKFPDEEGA

T9: E620A peptide (HER2 603-622 with E620A) (human)
T9 peptide: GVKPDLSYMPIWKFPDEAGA

T10: M611A peptide (HER2 603-622 with M611A) (human)
T10 peptide: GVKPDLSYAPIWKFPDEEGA

T11: W614A peptide (HER2 603-622 with W614A) (human)
T11 peptide: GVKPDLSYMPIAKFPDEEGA

T12: P606A peptide (HER2 603-622 with P606A) (human)
T12 peptide: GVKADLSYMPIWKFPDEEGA

T13: G603A peptide (HER2 603-622 with G603A) (human)
T13 peptide: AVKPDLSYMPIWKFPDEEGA

T14: F616A peptide (HER2 603-622 with F616A) (human)
T14 peptide: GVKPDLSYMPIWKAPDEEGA

T15: E619A peptide (HER2 603-622 with E619A) (human)
T15 peptide: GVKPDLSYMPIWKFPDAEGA

T16: P612A peptide (HER2 603-622 with P612A) (human)
T16 peptide: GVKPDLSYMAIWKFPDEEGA

T17: V604A peptide (HER2 603-622 with V604A) (human)
T17 peptide: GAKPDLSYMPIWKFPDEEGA

T18: D618A peptide (HER2 603-622 with D618A) (human)
T18 peptide: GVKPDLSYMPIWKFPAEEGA

T19: P617A peptide (HER2 603-622 with P617A) (human)
T19 peptide: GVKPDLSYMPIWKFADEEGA

T20: HER2_604-622C peptide (NH2-VKPDLSYMPIWKFPDEEGAC-COOH) (human)
T20 construct: KLH was added for immunisation, the peptide itself was coated in the screening ELISA
T20 peptide: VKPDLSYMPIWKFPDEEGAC

T21: Y610A peptide (HER2 603-622 with Y610A) (human)
T21 peptide: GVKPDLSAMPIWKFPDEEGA


Columns and labels:
Assay in all cases: peptide ELISA, OD 655 nm
[1] = target: T1, L608A peptide (HER2 603-622 with L608A)
[2] = target: T2, I613A peptide (HER2 603-622 with I613A)
[3] = target: T3, S609A peptide (HER2 603-622 with S609A)
[4] = target: T4, K615A peptide (HER2 603-622 with K615A)
[5] = target: T5, G621A peptide (HER2 603-622 with G621A)
[6] = target: T6, HER2 peptide p603-622 (amino acids 603 …)
[7] = target: T7, K605A peptide (HER2 603-622 with K605A)
[8] = target: T8, D607A peptide (HER2 603-622 with D607A)
[9] = target: T9, E620A peptide (HER2 603-622 with E620A)
[10] = target: T10, M611A peptide (HER2 603-622 with M611A)
[11] = target: T11, W614A peptide (HER2 603-622 with W614A)
[12] = target: T12, P606A peptide (HER2 603-622 with P606A)
[13] = target: T13, G603A peptide (HER2 603-622 with G603A)
[14] = target: T14, F616A peptide (HER2 603-622 with F616A)
[15] = target: T15, E619A peptide (HER2 603-622 with E619A)
[16] = target: T16, P612A peptide (HER2 603-622 with P612A)
[17] = target: T17, V604A peptide (HER2 603-622 with V604A)
[18] = target: T18, D618A peptide (HER2 603-622 with D618A)
[19] = target: T19, P617A peptide (HER2 603-622 with P617A)
[20] = target: T20, HER2_604-622C peptide …
[21] = target: T21, Y610A peptide (HER2 603-622 with Y610A)
[22] = target: T11, W614A peptide (HER2 603-622 with W614A)
[23] = target: T14, F616A peptide (HER2 603-622 with F616A)

| Binder | binding result [1] | binding result [2] | binding result [3] | binding result [5] | binding result [6] | binding result [7] | binding result [8] | binding result [9] | binding result [10] | binding result [11] | binding result [12] | binding result [13] | binding result [14] | binding result [15] | binding result [16] | binding result [17] | binding result [18] | binding result [19] | binding result [20] | binding result [21] | also measured |
| --- | --- | --- | --- | --- | --- | --- | --- | --- | --- | --- | --- | --- | --- | --- | --- | --- | --- | --- | --- | --- | --- |
| H2Mab-294 antibody (antibody, mouse IgG1, kappa, V domains shown) VH: EVQLVESGGGLVQPGGSLKLSCAASGFTFSSYGMSWVRQTPDKRLELVATINSNGGGTYYPDSVKGRFTISRDNAKNTLYLQMSSLKSEDTAIYYCASPGSWFPYWGQGTLVTVSA VL: not shown | binds | binds | binds | binds | binds | binds | binds | binds | binds | no binding (tested: 10 ug/ml) | binds | binds | binds | binds | binds | binds | binds | binds | binds | binds | binding result [4]: binds |
| H2Mab-296 antibody (antibody, mouse IgG1, kappa, V domains shown) VH: QVTLKESGPGILQPSQTLSLTCSFSGFSLSTSGMGVGWIRQPSGKGLEWLAHIWWDDDKRYNPALKSRLTISKDTSSNQVFLKIANVDTSDTATYYCSRIEGQRGFAYWGQGTLVTVSA VL: DIVMSQSPSSLAVSVGEMITMTCKSSQSLLYSRNQKNYLAWYQQKPGQSPKLLIYWASTRESGVPDRFTGSGSGTDFTLTISSVKAEDLAVYYCQQYYSQPYTFGGGTKLEIKR | binds | binds | binds | binds | binds | binds | binds | binds | binds | binds | binds | binds | no binding (tested: 10 ug/ml) | binds | binds | binds | binds | binds | binds | binds |  |
| H2Mab-295 antibody (antibody, mouse IgG1, kappa, V domains shown) VH: EVQLQQSGPELVKPGASRKISCKASGYSFTGYTMNWVKKSHGKNLEWIGLINPYNGGTRYNQKFKGKATLTVDKSSSTAYMELLSLTSEDSAVYYCVKEPSDYWGQGTTLTVSS VL: DVVMTQTPLSLPVSLGDQASISCRSSQSLVHSNGNTYLHWYLQKPGQSPKLLIYKVSKRFSGVPDRFSGCGSGTDFTLKISRLEAEDLGVYFCSQSSHVPPTFGGGTKLEIKR | binds | binds | binds | binds | binds | binds | binds | binds | binds | binds | binds | binds | binds | binds | binds | binds | binds | binds | binds | binds | binding result [4]: binds |
| H2Mab-286 antibody (antibody, mouse IgG1, kappa, V domains shown) VH: DVQLQESGPGLVKPSQSLSLTCTVTGYSITSDYGWNWIRQFPGNKLEWMGYIRYSGITSYNPSLKSRISITRDTSKNQFFLQLNSVTTEDTATYYCTREVLSWGQGTTLTVSS VL: DVVMTQTPLSLPVSLGDQASISCRSSQSLVHSNGNTYLHWFLQKPGQSPKLLIYKVSNRFSGVPARFSGSGSGTDFTLKISRVEAEDLGVYFCSQSTHVPPTFGGGTKLEIKR |  |  |  |  |  |  |  |  |  |  |  |  |  |  |  |  |  |  |  |  | binding result [22]: no binding (tested: 10 ug/ml); binding result [23]: no binding (tested: 10 ug/ml) |

Continued, in another order:

| binding result [1] | binding result [2] | binding result [3] | binding result [5] | binding result [6] | binding result [7] | binding result [8] | binding result [9] | binding result [10] | binding result [11] | binding result [12] | binding result [13] | binding result [14] | binding result [15] | binding result [16] | binding result [17] | binding result [18] | binding result [19] | binding result [20] | binding result [21] | Binder | also measured |
| --- | --- | --- | --- | --- | --- | --- | --- | --- | --- | --- | --- | --- | --- | --- | --- | --- | --- | --- | --- | --- | --- |
| binds | binds | binds | binds | binds | binds | binds | binds | binds | binds | binds | binds | binds | binds | binds | binds | binds | binds | binds | binds | H2Mab-293 antibody (antibody, mouse IgG3, V domains shown) VH: EVQLVESGGGLVQPGGSLKLSCAASGFTFSNYGIFWVRQTPDKRLELVATVKSNGGSTYYPDSVKGRFTISRDNAKKTLYLQMSSLKSEDTAMYYCAREGGDYWGQGTSVTVSS VL: DIVMTQSHKFMSTSVGDRVSITCKASQDVGTAVAWYQQKPGQSPKLLIYWTSTRHIGVPDRFTGSGSGTDFTLTIRNVQSEDLANYFCQQYSKNPLTFGAGTKLELKR | binding result [4]: binds |
| binds | binds | binds | binds | binds | binds | binds | binds | binds | binds | binds | binds | binds | binds | binds | binds | binds | binds | binds | binds | H2Mab-298 antibody (antibody, mouse IgG1, kappa, V domains shown) VH: DVKLVESGGGLVKPGGSLKLSCAASGFTFSRYSMSWVRQTPEKKLEWVAIISTGGSYMFYPDSAKGRFTISRDDAKNTLYLQMSSLKSEDTAMYYCTREAGDYWGQGTTLTVSS VL: not shown | binding result [4]: binds |
